From patent publication US20110081659

Biological target: T1, ULight-labeled 4E-BP1 fragment peptide GSK3 substrate (non-primed)
T1 chain: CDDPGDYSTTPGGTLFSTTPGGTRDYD

B1: GSK3α (Carna) (protein)
chain: MSGGGPSGGGPGGSGRARTSSFAEPGGGGGGGGGGPGGSASGPGGTGGGKASVGAMGGGVGASSSGGGPGGSGGGGSGGPGAGTSFPPPGVKLGRDSGKVTTVVATLGQGPERSQEVAYTDIKVIGNGSFGVVYQARLAETRELVAIKKVLQDKRFKNRELQIMRKLDHCNIVRLRYFFYSSGEKKDELYLNLVLEYVPETVYRVARHFTKAKLTIPILYVKVYMYQLFRSLAYIHSQGVCHRDIKPQNLLVDPDTAVLKLCDFGSAKQLVRGEPNVSYICSRYYRAPELIFGATDYTSSIDVWSAGCVLAELLLGQPIFPGDSGVDQLVEIIKVLGTPTREQIREMNPNYTEFKFPQIKAHPWTKVFKSRTPPEAIALCSSLLEYTPSSRLSPLEACAHSFFDELRCLGTQLPNNRPLPPLFNFSAGELSIQPSLNAILIPPHLRSPAGTTTLTPSSQALTETPTSSDWQSTDATPTLTNSS
B1 was tested, and the S/B, LANCE Ultra kinase assay, 20 nM enzyme, n = 1 was 35.7 and the S/B, LANCE Ultra kinase assay, 20 nM enzyme, n = 2 was 33.2.
